Measurements taken from the supplement of paper PMC7125110.
± gives the standard error. Variants at the floor of the assay were thinned out.

B1: glmS ribozyme (parent)
chain: AUAAAAGCGCCAGAACUACAGAAAUGUAGUUGACGAGGAGGAGGUUUAUCGAAUUUUCGGCGGAUGCCUCCAAA

Columns and labels:
Conditions in all cases: with glucosamine-6-phosphate
[1] = variants of: B1; experiment: self-cleavage kobs at 640 uM GlcN6P; higher = faster cleavage; RNA array
How it was run: (§1)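 Barcoded ribozyme variants were transcribed in situ on sequenced MiSeq chips by E. coli RNA polymerase. At 37 °C, a hybridised Cy3 probe tracked them while glucosamine-6-phosphate (40 μM to 10 mM) in HEPES/KCl/Mg(OAc)2 buffer flowed in and tiles were imaged over ~14 h. Per-tile medians of signals normalised to baseline and to non-cleaving reference variants were fit to one- or two-exponential decays, giving kobs. kcat and KM came from weighted Michaelis–Menten fits across concentrations.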

[2] = variants of: B1; experiment: self-cleavage kobs at 2500 uM GlcN6P; higher = faster cleavage; RNA array
How it was run: as §1

[3] = variants of: B1; experiment: self-cleavage kobs at 10000 uM GlcN6P; higher = faster cleavage; RNA array
How it was run: as §1

| Variant | self-cleavage kobs at 640 uM GlcN6P [1] | self-cleavage kobs at 2500 uM GlcN6P [2] | self-cleavage kobs at 10000 uM GlcN6P [3] |
| --- | --- | --- | --- |
| G9A G35A A48C C50G | < 1e-05 s⁻¹ | < 1e-05 s⁻¹ |  |
| C11U G44U C70G | < 1e-05 s⁻¹ |  |  |
| C10A U30C G37U | < 1e-05 s⁻¹ |  |  |
| C11U U57G G63A | < 1e-05 s⁻¹ | < 1e-05 s⁻¹ |  |
| A12C G41A A42U G51C C68G C70U | < 1e-05 s⁻¹ |  |  |
| C10U U31C U49C | < 1e-05 s⁻¹ |  |  |
| A12G G37C U57A | < 1e-05 s⁻¹ | < 1e-05 s⁻¹ |  |
| G13C G35U A52U | < 1e-05 s⁻¹ |  |  |
| C10A A14C A64U | < 1e-05 s⁻¹ | < 1e-05 s⁻¹ |  |
| A12C G29A G37A | 0.000302 ± 8.2e-05 s⁻¹ | 0.000142 ± 5.2e-05 s⁻¹ |  |
| G9U U47G | < 1e-05 s⁻¹ |  | < 1e-05 s⁻¹ |
| G13A C16G G29U G37A G40U | < 1e-05 s⁻¹ |  |  |
| C10G A33C G37A G59U | < 1e-05 s⁻¹ | < 1e-05 s⁻¹ |  |
| G9U C34A G59U G63A | < 1e-05 s⁻¹ | < 1e-05 s⁻¹ |  |
| A12G U30G G43C U46G | < 1e-05 s⁻¹ |  |  |
| A12C U65G C67U | 0.000474 ± 0.00016 s⁻¹ |  | 0.00133 ± 0.00031 s⁻¹ |
| C11A U31G G35C | < 1e-05 s⁻¹ | < 1e-05 s⁻¹ |  |
| A12U G62U | < 1e-05 s⁻¹ |  | < 1e-05 s⁻¹ |
| C11U U31A C50G | 8.34e-05 ± 2.1e-05 s⁻¹ | 9.55e-05 ± 3.2e-05 s⁻¹ |  |
| C10G A15C A36U | < 1e-05 s⁻¹ |  |  |
| G13A C16A C68G | 7.67e-05 ± 3.7e-05 s⁻¹ |  |  |
| C11U A36C G43U C71A | < 1e-05 s⁻¹ |  |  |
| A12G U46G C58G G63U U69A | 0.000158 ± 6.3e-05 s⁻¹ |  |  |

| Variant | self-cleavage kobs at 640 uM GlcN6P [1] | self-cleavage kobs at 2500 uM GlcN6P [2] | self-cleavage kobs at 10000 uM GlcN6P [3] |
| --- | --- | --- | --- |
| G9C C50G G60C C70A | 0.000151 ± 4.9e-05 s⁻¹ | 0.000123 ± 3.7e-05 s⁻¹ |  |
| C11U A33C G41A | < 1e-05 s⁻¹ |  |  |
| G9U C10U G38U G44C U49C | < 1e-05 s⁻¹ |  |  |
| C11U G41U U45C | < 1e-05 s⁻¹ |  |  |
| C11A G38U U47A | < 1e-05 s⁻¹ |  |  |
| A12G C16A A52U U57G | < 1e-05 s⁻¹ |  |  |
| A12C C34A U69C | < 1e-05 s⁻¹ |  |  |
| C11G G60U A64U | < 1e-05 s⁻¹ | < 1e-05 s⁻¹ |  |
| C11A A33U A52G C68G | 0.000157 ± 6.4e-05 s⁻¹ |  |  |
| A12C G43A C61U | < 1e-05 s⁻¹ | < 1e-05 s⁻¹ |  |
| C10A G35C C70U | < 1e-05 s⁻¹ |  |  |
| A12G G13U U47G A53U G66A | < 1e-05 s⁻¹ |  |  |
| G9A G37C U54G G60U C68U | < 1e-05 s⁻¹ | < 1e-05 s⁻¹ |  |
| G9C C16G | < 1e-05 s⁻¹ | < 1e-05 s⁻¹ |  |
| C10G G38A C58G A64C | 0.000102 ± 4.5e-05 s⁻¹ |  |  |
| G9A U57A | < 1e-05 s⁻¹ | < 1e-05 s⁻¹ |  |
| C11G G41U C50U | < 1e-05 s⁻¹ | < 1e-05 s⁻¹ |  |
| G13C C16U A36G U69C | < 1e-05 s⁻¹ |  |  |
| G9U G59C G63C C70U | < 1e-05 s⁻¹ |  |  |
| C10G C16A A53U G66U U69A | 5.56e-05 ± 2.7e-05 s⁻¹ | 4.65e-05 ± 2e-05 s⁻¹ |  |
| G9C A33G G35A G63U | < 1e-05 s⁻¹ |  |  |
| G9U U54G C68U | < 1e-05 s⁻¹ |  |  |
| A12G A48C A52U | < 1e-05 s⁻¹ | < 1e-05 s⁻¹ |  |

| Variant | self-cleavage kobs at 640 uM GlcN6P [1] | self-cleavage kobs at 2500 uM GlcN6P [2] | self-cleavage kobs at 10000 uM GlcN6P [3] |
| --- | --- | --- | --- |
| A12U A39C A42U G60A | < 1e-05 s⁻¹ |  | < 1e-05 s⁻¹ |
| G9C G40A G66U C68G | < 1e-05 s⁻¹ |  |  |
| C11U U47A A53G U56A C70G | 5.74e-05 ± 1.8e-05 s⁻¹ | 0.000104 ± 3.4e-05 s⁻¹ |  |
| G9C A53C C70U | < 1e-05 s⁻¹ | < 1e-05 s⁻¹ |  |
| A12C U46A G51U U54G G60A C61A C70A | < 1e-05 s⁻¹ |  |  |
| C10U A36U C70A | 0.00107 ± 0.00039 s⁻¹ |  |  |
| G13C C50A | < 1e-05 s⁻¹ |  | < 1e-05 s⁻¹ |
| C11G C50U U57A G60A C67U | 0.000609 ± 0.00017 s⁻¹ |  |  |
| A12U G32C C50G C70G | 0.000371 ± 0.00015 s⁻¹ | 0.000257 ± 8.3e-05 s⁻¹ |  |
| C11G A14G G41A G43C | < 1e-05 s⁻¹ | < 1e-05 s⁻¹ |  |
| A12U A14G U30G A33G G66A | < 1e-05 s⁻¹ | < 1e-05 s⁻¹ |  |
| C11U A15G G60U | < 1e-05 s⁻¹ |  |  |
| A12G G26U G38A C68G C71A | 0.000109 ± 2e-05 s⁻¹ | 7.22e-05 ± 2.4e-05 s⁻¹ |  |
| C11G C16G G38A G63A | < 1e-05 s⁻¹ |  |  |
| C11U G38C C50U A52C | < 1e-05 s⁻¹ |  |  |
| C10G G44U C70U | < 1e-05 s⁻¹ |  |  |
| C10G C11U G41A C70U | < 1e-05 s⁻¹ |  |  |
| C11U G41C C67U | < 1e-05 s⁻¹ |  |  |
| C11U G32C A36G | < 1e-05 s⁻¹ | < 1e-05 s⁻¹ | < 1e-05 s⁻¹ |
| C11U G35C U46A U69G | < 1e-05 s⁻¹ | < 1e-05 s⁻¹ |  |
| C11A C67U C71G | 0.000295 ± 9e-05 s⁻¹ | 0.00108 ± 0.00018 s⁻¹ | 4.96e-05 ± 1.3e-05 s⁻¹ |
| A12U G32U G41A U56A A64U U65A | < 1e-05 s⁻¹ | < 1e-05 s⁻¹ |  |
| G13A A48U U54C | < 1e-05 s⁻¹ |  |  |
